Measurements published in patent US20060263802A1 (CRUCELL HOLLAND B V, published 2006).

Legend:
Test in all cases: PEPSCAN ELISA, looped peptide, antibody 10 µg/ml
[1] = target: looped/cyclic peptide … (rabies virus strain ERA)
[2] = target: looped/cyclic peptide … (rabies virus strain ERA); remark: listed apart in the source
[3] = target: looped/cyclic peptide … (rabies virus strain ERA); remark: listed apart in the source
[4] = target: looped/cyclic peptide … (rabies virus strain ERA); remark: listed apart in the source
[5] = target: looped/cyclic peptide … (rabies virus strain ERA); remark: listed apart in the source
[6] = target: looped/cyclic peptide … (rabies virus strain ERA); remark: listed apart in the source
[7] = target: looped/cyclic peptide … (rabies virus strain ERA); remark: listed apart in the source
[8] = target: looped/cyclic peptide … (rabies virus strain ERA); remark: listed apart in the source
[9] = target: looped/cyclic peptide … (rabies virus strain ERA); remark: listed apart in the source
[10] = target: looped/cyclic peptide … (rabies virus strain ERA); remark: listed apart in the source
[11] = target: looped/cyclic peptide […] (rabies virus strain ERA)
[12] = target: looped/cyclic peptide … (rabies virus strain ERA); remark: listed apart in the source
[13] = target: looped/cyclic peptide … (rabies virus strain ERA); remark: listed apart in the source
[14] = target: looped/cyclic peptide … (rabies virus strain ERA); remark: listed apart in the source
[15] = target: looped/cyclic peptide … (rabies virus strain ERA); remark: listed apart in the source
[16] = target: looped/cyclic peptide … (rabies virus strain ERA); remark: listed apart in the source
[17] = target: looped/cyclic peptide … (rabies virus strain ERA); remark: listed apart in the source
[18] = target: looped/cyclic peptide … (rabies virus strain ERA); remark: listed apart in the source
[19] = target: looped/cyclic peptide … (rabies virus strain ERA); remark: listed apart in the source
[20] = target: looped/cyclic peptide … (rabies virus strain ERA); remark: listed apart in the source
[21] = target: looped/cyclic peptide … (rabies virus strain ERA); remark: listed apart in the source
[22] = target: looped/cyclic peptide … (rabies virus strain ERA); remark: listed apart in the source
[23] = target: looped/cyclic peptide … (rabies virus strain ERA); remark: listed apart in the source
[24] = target: looped/cyclic peptide … (rabies virus strain ERA); remark: listed apart in the source
[25] = target: looped/cyclic peptide … (rabies virus strain ERA); remark: listed apart in the source
[26] = target: looped/cyclic peptide … (rabies virus strain ERA); remark: listed apart in the source
[27] = target: looped/cyclic peptide … (rabies virus strain ERA); remark: listed apart in the source
[28] = target: looped/cyclic peptide … (rabies virus strain ERA); remark: listed apart in the source
[29] = target: looped/cyclic peptide … (rabies virus strain ERA); remark: listed apart in the source
[30] = target: looped/cyclic peptide … (rabies virus strain ERA); remark: listed apart in the source
[31] = target: looped/cyclic peptide … (rabies virus strain ERA); remark: listed apart in the source
[32] = target: looped/cyclic peptide … (rabies virus strain ERA); remark: listed apart in the source
[33] = target: looped/cyclic peptide … (rabies virus strain ERA); remark: listed apart in the source
[34] = target: looped/cyclic peptide … (rabies virus strain ERA); remark: listed apart in the source
[35] = target: looped/cyclic peptide … (rabies virus strain ERA); remark: listed apart in the source
[36] = target: looped/cyclic peptide … (rabies virus strain ERA); remark: listed apart in the source
[37] = target: looped/cyclic peptide … (rabies virus strain ERA); remark: listed apart in the source
[38] = target: looped/cyclic peptide … (rabies virus strain ERA); remark: listed apart in the source
[39] = target: looped/cyclic peptide … (rabies virus strain ERA); remark: listed apart in the source
[40] = target: looped/cyclic peptide … (rabies virus strain ERA); remark: listed apart in the source
[41] = target: looped/cyclic peptide … (rabies virus strain ERA); remark: listed apart in the source
[42] = target: looped/cyclic peptide … (rabies virus strain ERA); remark: listed apart in the source
[43] = target: looped/cyclic peptide … (rabies virus strain ERA); remark: listed apart in the source
[44] = target: looped/cyclic peptide … (rabies virus strain ERA); remark: listed apart in the source
[45] = target: looped/cyclic peptide … (rabies virus strain ERA); remark: listed apart in the source
[46] = target: looped/cyclic peptide … (rabies virus strain ERA); remark: listed apart in the source
[47] = target: looped/cyclic peptide … (rabies virus strain ERA); remark: listed apart in the source
[48] = target: looped/cyclic peptide … (rabies virus strain ERA); remark: listed apart in the source
[49] = target: looped/cyclic peptide … (rabies virus strain ERA); remark: listed apart in the source
[50] = target: looped/cyclic peptide … (rabies virus strain ERA); remark: listed apart in the source
[51] = target: looped/cyclic peptide … (rabies virus strain ERA); remark: listed apart in the source
[52] = target: looped/cyclic peptide … (rabies virus strain ERA); remark: listed apart in the source
[53] = target: looped/cyclic peptide … (rabies virus strain ERA); remark: listed apart in the source
[54] = target: looped/cyclic peptide … (rabies virus strain ERA); remark: listed apart in the source
[55] = target: looped/cyclic peptide … (rabies virus strain ERA); remark: listed apart in the source
[56] = target: looped/cyclic peptide … (rabies virus strain ERA); remark: listed apart in the source
[57] = target: looped/cyclic peptide … (rabies virus strain ERA); remark: listed apart in the source
[58] = target: looped/cyclic peptide … (rabies virus strain ERA); remark: listed apart in the source
[59] = target: looped/cyclic peptide … (rabies virus strain ERA); remark: listed apart in the source
[60] = target: looped/cyclic peptide … (rabies virus strain ERA); remark: listed apart in the source

B1: human monoclonal antibody CRJA (antibody, V domains shown)
VH: EVQLLESGGGLVQPGGSLRLSCAASGFTFSNYAMSWVRQAPGKGLEWVSAISASGHSTYLADSVKGRFTISRDNSKNTLYLQMNSLRAEDTAVYYCAKDREVTMIVVLNGGFDYWGQGTRVTVSS
VL: EIVLTQSPATLSLSPGERATLACRASQTASRYLAWYQQKPGQAPRLLIYDTSNRATGIPARFSGSGSGTDFTLSISSLEPEDFAVYYCQQRFNWPWTFGQGTKVEFK
OD value [1]: 92 OD
OD value [2]: 118 OD
OD value [3]: 113 OD
OD value [4]: 88 OD
OD value [5]: 45 OD
OD value [6]: 104 OD
OD value [7]: 113 OD
OD value [8]: 41 OD
OD value [9]: 54 OD
OD value [10]: 100 OD
OD value [11]: 186 OD
OD value [12]: 137 OD
OD value [13]: 89 OD
OD value [14]: 110 OD
OD value [15]: 86 OD
OD value [16]: 58 OD
OD value [17]: 83 OD
OD value [18]: 51 OD
OD value [19]: 125 OD
OD value [20]: 123 OD
OD value [21]: 71 OD
OD value [22]: 79 OD
OD value [23]: 65 OD
OD value [24]: 96 OD
OD value [25]: 96 OD
OD value [26]: 83 OD
OD value [27]: 86 OD
OD value [28]: 136 OD
OD value [29]: 46 OD
OD value [30]: 117 OD
OD value [31]: 105 OD
OD value [32]: 71 OD
OD value [33]: 96 OD
OD value [34]: 96 OD
OD value [35]: 72 OD
OD value [36]: 68 OD
OD value [37]: 90 OD
OD value [38]: 93 OD
OD value [39]: 92 OD
OD value [40]: 55 OD
OD value [41]: 112 OD
OD value [42]: 69 OD
OD value [43]: 72 OD
OD value [44]: 117 OD
OD value [45]: 79 OD
OD value [46]: 57 OD
OD value [47]: 62 OD
OD value [48]: 110 OD
OD value [49]: 87 OD
OD value [50]: 84 OD
OD value [51]: 93 OD
OD value [52]: 90 OD
OD value [53]: 72 OD
OD value [54]: 96 OD
OD value [55]: 92 OD
OD value [56]: 78 OD
OD value [57]: 71 OD
OD value [58]: 90 OD
OD value [59]: 96 OD
OD value [60]: 58 OD
